Source: paper PMC6487263, “Kinetic and structural analysis of human ALDH9A1” (Bioscience Reports, 2019)

Target: the molecule itself
Experiment: crystal structure; three crystal forms (P2(1)2(1)2, P2(1), C2) at 2.5, 2.9 and 2.3 Å; co-crystallised with 50 mM NAD+ with or without 10 mM TMABA, PEG 4000, 0.1 M sodium citrate pH 5.6; apoform seen; tetramer as dimer-of-dimers

B1: human ALDH9A1 (enzyme, UniProt P49189 1-494, looked up)
chain: MSTGTFVVSQPLNYRGGARVEPADASGTEKAFEPATGRVIATFTCSGEKEVNLAVQNAKAAFKIWSQKSGMERCRILLEAARIIREREDEIATMECINNGKSIFEARLDIDISWQCLEYYAGLAASMAGEHIQLPGGSFGYTRREPLGVCVGIGAWNYPFQIASWKSAPALACGNAMVFKPSPFTPVSALLLAEIYSEAGVPPGLFNVVQGGAATGQFLCQHPDVAKVSFTGSVPTGMKIMEMSAKGIKPVTLELGGKSPLIIFSDCDMNNAVKGALMANFLTQGQVCCNGTRVFVQKEILDKFTEEVVKQTQRIKIGDPLLEDTRMGPLINRPHLERVLGFVKVAKEQGAKVLCGGDIYVPEDPKLKDGYYMRPCVLTNCRDDMTCVKEEIFGPVMSILSFDTEAEVLERANDTTFGLAAGVFTRDIQRAHRVVAELQAGTCFINNYNVSPVELPFGGYKKSGFGRENGRVTIEYYSQLKTVCVEMGDVESAF
notes: Human ALDH9A1, a protein of 494 amino acids; the ORF was amplified with gene-specific primers and ligated into pCDFDuet (BamHI, XhoI); Monomer of 55.4 kDa including the His-tag; cloning into the BamHI site of pCDFDuet would place a His6 tag at the N-terminus (surmised); Residues 232-256 are disordered in the crystal structures; also called HsALDH9A1; TMABALDH; source: E. coli (T7 express; …)
stoichiometry N: 4
